# Measurements as given in US20090291890A1 (published 2009).
# Target: Factor X (FX) (Homo sapiens (Human)) (UniProt P00742)
# Sequence (P00742 41-488 limits assumed): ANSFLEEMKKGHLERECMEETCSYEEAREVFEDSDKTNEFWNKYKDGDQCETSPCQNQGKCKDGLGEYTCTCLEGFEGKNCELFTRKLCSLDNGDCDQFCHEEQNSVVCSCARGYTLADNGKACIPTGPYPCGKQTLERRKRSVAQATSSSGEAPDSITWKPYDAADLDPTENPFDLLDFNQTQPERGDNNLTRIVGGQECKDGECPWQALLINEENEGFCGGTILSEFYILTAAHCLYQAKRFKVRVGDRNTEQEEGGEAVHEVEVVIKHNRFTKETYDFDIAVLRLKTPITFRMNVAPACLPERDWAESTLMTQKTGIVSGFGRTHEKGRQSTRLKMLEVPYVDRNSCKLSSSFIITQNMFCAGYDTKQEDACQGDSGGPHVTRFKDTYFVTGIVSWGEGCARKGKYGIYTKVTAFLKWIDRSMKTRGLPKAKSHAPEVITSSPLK
row,Binder,"kcat/KM, TF-Dependent Indirect Assay"
1,FVIIa variant H216R (enzyme) ANAFLEELRPGSLERECKEEQCSFEEAREIFKDAERTKLFWISYSDGDQCASSPCQNGGSCKDQLQSYICFCLPAFEGRNCETHKDDQLICVNENGGCEQYCSDHTGTKRSCRCHEGYSLLADGVSCTPTVEYPCGKIPILEKRNASKPQGRIVGGKVCPKGECPWQVLLLVNGAQLCGGTLINTIWVVSAAHCFDKIKNWRNLIAVLGEHDLSERDGDEQSRRVAQVIIPSTYVPGTTNHDIALLRLHQPVVLTDHVVPLCLPERTFSERTLAFVRFSLVSGWGQLLDRGATALELMVLNVPRLMTQDCLQQSRKVGDSPNITEYMFCAGYSDGSKDSCKGDSGGPHATHYRGTWYLTGIVSWGQGCATVGHFGVYTRVSQYIEWLQKLMRSEPRPGVLLRAPFP,9.44e+07 M⁻¹ s⁻¹
2,FVIIa variant H373A (enzyme) ANAFLEELRPGSLERECKEEQCSFEEAREIFKDAERTKLFWISYSDGDQCASSPCQNGGSCKDQLQSYICFCLPAFEGRNCETHKDDQLICVNENGGCEQYCSDHTGTKRSCRCHEGYSLLADGVSCTPTVEYPCGKIPILEKRNASKPQGRIVGGKVCPKGECPWQVLLLVNGAQLCGGTLINTIWVVSAAHCFDKIKNWRNLIAVLGEHDLSEHDGDEQSRRVAQVIIPSTYVPGTTNHDIALLRLHQPVVLTDHVVPLCLPERTFSERTLAFVRFSLVSGWGQLLDRGATALELMVLNVPRLMTQDCLQQSRKVGDSPNITEYMFCAGYSDGSKDSCKGDSGGPHATHYRGTWYLTGIVSWGQGCATVGAFGVYTRVSQYIEWLQKLMRSEPRPGVLLRAPFP,3.11e+07 M⁻¹ s⁻¹
3,FVIIa variant H257S (enzyme) ANAFLEELRPGSLERECKEEQCSFEEAREIFKDAERTKLFWISYSDGDQCASSPCQNGGSCKDQLQSYICFCLPAFEGRNCETHKDDQLICVNENGGCEQYCSDHTGTKRSCRCHEGYSLLADGVSCTPTVEYPCGKIPILEKRNASKPQGRIVGGKVCPKGECPWQVLLLVNGAQLCGGTLINTIWVVSAAHCFDKIKNWRNLIAVLGEHDLSEHDGDEQSRRVAQVIIPSTYVPGTTNHDIALLRLHQPVVLTDSVVPLCLPERTFSERTLAFVRFSLVSGWGQLLDRGATALELMVLNVPRLMTQDCLQQSRKVGDSPNITEYMFCAGYSDGSKDSCKGDSGGPHATHYRGTWYLTGIVSWGQGCATVGHFGVYTRVSQYIEWLQKLMRSEPRPGVLLRAPFP,5.9e+07 M⁻¹ s⁻¹
4,FVIIa variant H373S (enzyme) ANAFLEELRPGSLERECKEEQCSFEEAREIFKDAERTKLFWISYSDGDQCASSPCQNGGSCKDQLQSYICFCLPAFEGRNCETHKDDQLICVNENGGCEQYCSDHTGTKRSCRCHEGYSLLADGVSCTPTVEYPCGKIPILEKRNASKPQGRIVGGKVCPKGECPWQVLLLVNGAQLCGGTLINTIWVVSAAHCFDKIKNWRNLIAVLGEHDLSEHDGDEQSRRVAQVIIPSTYVPGTTNHDIALLRLHQPVVLTDHVVPLCLPERTFSERTLAFVRFSLVSGWGQLLDRGATALELMVLNVPRLMTQDCLQQSRKVGDSPNITEYMFCAGYSDGSKDSCKGDSGGPHATHYRGTWYLTGIVSWGQGCATVGSFGVYTRVSQYIEWLQKLMRSEPRPGVLLRAPFP,2.75e+07 M⁻¹ s⁻¹
5,FVIIa variant K161S (enzyme) ANAFLEELRPGSLERECKEEQCSFEEAREIFKDAERTKLFWISYSDGDQCASSPCQNGGSCKDQLQSYICFCLPAFEGRNCETHKDDQLICVNENGGCEQYCSDHTGTKRSCRCHEGYSLLADGVSCTPTVEYPCGKIPILEKRNASKPQGRIVGGKVCPSGECPWQVLLLVNGAQLCGGTLINTIWVVSAAHCFDKIKNWRNLIAVLGEHDLSEHDGDEQSRRVAQVIIPSTYVPGTTNHDIALLRLHQPVVLTDHVVPLCLPERTFSERTLAFVRFSLVSGWGQLLDRGATALELMVLNVPRLMTQDCLQQSRKVGDSPNITEYMFCAGYSDGSKDSCKGDSGGPHATHYRGTWYLTGIVSWGQGCATVGHFGVYTRVSQYIEWLQKLMRSEPRPGVLLRAPFP,5.99e+07 M⁻¹ s⁻¹
6,FVIIa variant H373F (enzyme) ANAFLEELRPGSLERECKEEQCSFEEAREIFKDAERTKLFWISYSDGDQCASSPCQNGGSCKDQLQSYICFCLPAFEGRNCETHKDDQLICVNENGGCEQYCSDHTGTKRSCRCHEGYSLLADGVSCTPTVEYPCGKIPILEKRNASKPQGRIVGGKVCPKGECPWQVLLLVNGAQLCGGTLINTIWVVSAAHCFDKIKNWRNLIAVLGEHDLSEHDGDEQSRRVAQVIIPSTYVPGTTNHDIALLRLHQPVVLTDHVVPLCLPERTFSERTLAFVRFSLVSGWGQLLDRGATALELMVLNVPRLMTQDCLQQSRKVGDSPNITEYMFCAGYSDGSKDSCKGDSGGPHATHYRGTWYLTGIVSWGQGCATVGFFGVYTRVSQYIEWLQKLMRSEPRPGVLLRAPFP,5.11e+07 M⁻¹ s⁻¹
7,FVIIa variant K161A (enzyme) ANAFLEELRPGSLERECKEEQCSFEEAREIFKDAERTKLFWISYSDGDQCASSPCQNGGSCKDQLQSYICFCLPAFEGRNCETHKDDQLICVNENGGCEQYCSDHTGTKRSCRCHEGYSLLADGVSCTPTVEYPCGKIPILEKRNASKPQGRIVGGKVCPAGECPWQVLLLVNGAQLCGGTLINTIWVVSAAHCFDKIKNWRNLIAVLGEHDLSEHDGDEQSRRVAQVIIPSTYVPGTTNHDIALLRLHQPVVLTDHVVPLCLPERTFSERTLAFVRFSLVSGWGQLLDRGATALELMVLNVPRLMTQDCLQQSRKVGDSPNITEYMFCAGYSDGSKDSCKGDSGGPHATHYRGTWYLTGIVSWGQGCATVGHFGVYTRVSQYIEWLQKLMRSEPRPGVLLRAPFP,4.22e+07 M⁻¹ s⁻¹
8,FVIIa variant H257A (enzyme) ANAFLEELRPGSLERECKEEQCSFEEAREIFKDAERTKLFWISYSDGDQCASSPCQNGGSCKDQLQSYICFCLPAFEGRNCETHKDDQLICVNENGGCEQYCSDHTGTKRSCRCHEGYSLLADGVSCTPTVEYPCGKIPILEKRNASKPQGRIVGGKVCPKGECPWQVLLLVNGAQLCGGTLINTIWVVSAAHCFDKIKNWRNLIAVLGEHDLSEHDGDEQSRRVAQVIIPSTYVPGTTNHDIALLRLHQPVVLTDAVVPLCLPERTFSERTLAFVRFSLVSGWGQLLDRGATALELMVLNVPRLMTQDCLQQSRKVGDSPNITEYMFCAGYSDGSKDSCKGDSGGPHATHYRGTWYLTGIVSWGQGCATVGHFGVYTRVSQYIEWLQKLMRSEPRPGVLLRAPFP,3.9e+07 M⁻¹ s⁻¹
9,FVIIa variant H373D (enzyme) ANAFLEELRPGSLERECKEEQCSFEEAREIFKDAERTKLFWISYSDGDQCASSPCQNGGSCKDQLQSYICFCLPAFEGRNCETHKDDQLICVNENGGCEQYCSDHTGTKRSCRCHEGYSLLADGVSCTPTVEYPCGKIPILEKRNASKPQGRIVGGKVCPKGECPWQVLLLVNGAQLCGGTLINTIWVVSAAHCFDKIKNWRNLIAVLGEHDLSEHDGDEQSRRVAQVIIPSTYVPGTTNHDIALLRLHQPVVLTDHVVPLCLPERTFSERTLAFVRFSLVSGWGQLLDRGATALELMVLNVPRLMTQDCLQQSRKVGDSPNITEYMFCAGYSDGSKDSCKGDSGGPHATHYRGTWYLTGIVSWGQGCATVGDFGVYTRVSQYIEWLQKLMRSEPRPGVLLRAPFP,1.79e+07 M⁻¹ s⁻¹
10,FVIIa variant H373E (enzyme) ANAFLEELRPGSLERECKEEQCSFEEAREIFKDAERTKLFWISYSDGDQCASSPCQNGGSCKDQLQSYICFCLPAFEGRNCETHKDDQLICVNENGGCEQYCSDHTGTKRSCRCHEGYSLLADGVSCTPTVEYPCGKIPILEKRNASKPQGRIVGGKVCPKGECPWQVLLLVNGAQLCGGTLINTIWVVSAAHCFDKIKNWRNLIAVLGEHDLSEHDGDEQSRRVAQVIIPSTYVPGTTNHDIALLRLHQPVVLTDHVVPLCLPERTFSERTLAFVRFSLVSGWGQLLDRGATALELMVLNVPRLMTQDCLQQSRKVGDSPNITEYMFCAGYSDGSKDSCKGDSGGPHATHYRGTWYLTGIVSWGQGCATVGEFGVYTRVSQYIEWLQKLMRSEPRPGVLLRAPFP,2.79e+07 M⁻¹ s⁻¹

# Second part, the binder after the results:
row,"kcat/KM, TF-Dependent Indirect Assay",Binder
1,4.66e+07 M⁻¹ s⁻¹,FVIIa variant S52A (enzyme) ANAFLEELRPGSLERECKEEQCSFEEAREIFKDAERTKLFWISYSDGDQCAASPCQNGGSCKDQLQSYICFCLPAFEGRNCETHKDDQLICVNENGGCEQYCSDHTGTKRSCRCHEGYSLLADGVSCTPTVEYPCGKIPILEKRNASKPQGRIVGGKVCPKGECPWQVLLLVNGAQLCGGTLINTIWVVSAAHCFDKIKNWRNLIAVLGEHDLSEHDGDEQSRRVAQVIIPSTYVPGTTNHDIALLRLHQPVVLTDHVVPLCLPERTFSERTLAFVRFSLVSGWGQLLDRGATALELMVLNVPRLMTQDCLQQSRKVGDSPNITEYMFCAGYSDGSKDSCKGDSGGPHATHYRGTWYLTGIVSWGQGCATVGHFGVYTRVSQYIEWLQKLMRSEPRPGVLLRAPFP
2,8.02e+07 M⁻¹ s⁻¹,FVIIa variant S222K (enzyme) ANAFLEELRPGSLERECKEEQCSFEEAREIFKDAERTKLFWISYSDGDQCASSPCQNGGSCKDQLQSYICFCLPAFEGRNCETHKDDQLICVNENGGCEQYCSDHTGTKRSCRCHEGYSLLADGVSCTPTVEYPCGKIPILEKRNASKPQGRIVGGKVCPKGECPWQVLLLVNGAQLCGGTLINTIWVVSAAHCFDKIKNWRNLIAVLGEHDLSEHDGDEQKRRVAQVIIPSTYVPGTTNHDIALLRLHQPVVLTDHVVPLCLPERTFSERTLAFVRFSLVSGWGQLLDRGATALELMVLNVPRLMTQDCLQQSRKVGDSPNITEYMFCAGYSDGSKDSCKGDSGGPHATHYRGTWYLTGIVSWGQGCATVGHFGVYTRVSQYIEWLQKLMRSEPRPGVLLRAPFP
3,5.45e+07 M⁻¹ s⁻¹,FVIIa variant K161V (enzyme) ANAFLEELRPGSLERECKEEQCSFEEAREIFKDAERTKLFWISYSDGDQCASSPCQNGGSCKDQLQSYICFCLPAFEGRNCETHKDDQLICVNENGGCEQYCSDHTGTKRSCRCHEGYSLLADGVSCTPTVEYPCGKIPILEKRNASKPQGRIVGGKVCPVGECPWQVLLLVNGAQLCGGTLINTIWVVSAAHCFDKIKNWRNLIAVLGEHDLSEHDGDEQSRRVAQVIIPSTYVPGTTNHDIALLRLHQPVVLTDHVVPLCLPERTFSERTLAFVRFSLVSGWGQLLDRGATALELMVLNVPRLMTQDCLQQSRKVGDSPNITEYMFCAGYSDGSKDSCKGDSGGPHATHYRGTWYLTGIVSWGQGCATVGHFGVYTRVSQYIEWLQKLMRSEPRPGVLLRAPFP
4,5.15e+07 M⁻¹ s⁻¹,FVIIa variant S60A (enzyme) ANAFLEELRPGSLERECKEEQCSFEEAREIFKDAERTKLFWISYSDGDQCASSPCQNGGACKDQLQSYICFCLPAFEGRNCETHKDDQLICVNENGGCEQYCSDHTGTKRSCRCHEGYSLLADGVSCTPTVEYPCGKIPILEKRNASKPQGRIVGGKVCPKGECPWQVLLLVNGAQLCGGTLINTIWVVSAAHCFDKIKNWRNLIAVLGEHDLSEHDGDEQSRRVAQVIIPSTYVPGTTNHDIALLRLHQPVVLTDHVVPLCLPERTFSERTLAFVRFSLVSGWGQLLDRGATALELMVLNVPRLMTQDCLQQSRKVGDSPNITEYMFCAGYSDGSKDSCKGDSGGPHATHYRGTWYLTGIVSWGQGCATVGHFGVYTRVSQYIEWLQKLMRSEPRPGVLLRAPFP
